From the supplement of paper PMC12042874 come the findings set out here.

± gives the uncertainty stated by the source.

The data set can be described thus: amyloid nucleation score (Sup35N fusion, yeast selection) (log enrichment); library NNK3; higher = more nucleation; inactive = no reads after selection. In short, it runs like this:
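After 24 hours of induction with 100 μM copper sulfate, psi-negative yeast expressing peptides of 20 random codons fused to Sup35N were grown for 7 days at 30°C on medium lacking adenine and uracil. Input and output plasmid inserts were sequenced with Illumina, and sequences with under 100 input reads were discarded. Scores for nucleation are the DiMSum log enrichment of output over input reads, centred on the mode score of non-aggregating sequences.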

As to ILYLRVYITFVLIGNLEGFR, the amyloid nucleation score result is “inactive”. For RSTRIGLIYYMGMSATCTWG, the amyloid nucleation score result was “inactive”.

For the substance YAHLAL, the amyloid nucleation score entry is “inactive”. The same measure for DDYYFG: “inactive”. As for MSESTITLPWIAGIAWDEKL, the amyloid nucleation score result is “inactive”. As for NCLRLYQGSGKMFIIV, the amyloid nucleation score result was “inactive”. Next, SLRDVVV: “inactive”; GVGATATTFWGVRWVRRSTN: “inactive”; NCFMSLASSNTR: “inactive”.

Turning to FERDVFDQYEVVQWGARGDG, the amyloid nucleation score entry is “inactive”. With YWASARTRSGYFDVNKFSGG, the amyloid nucleation score result was “inactive”.

DLTMVQLMIFMLIIIFFNLL: the amyloid nucleation score entry was “inactive”. Next, VQCRSHWHWRRPGPEARSVW: “inactive”; YWKRAGPQFGVPDSWTPSGP: “inactive”. Next, YKLICMSSRWTFLSSRQGEF: “inactive”; RCDKIWQASVMGSDIRDL: “inactive”; YREVYLNRRLERL: “inactive”. The same measure for RRTMSSLFFKFDLH: “inactive”. Turning to RMAIISSRIWFGFLAMQFVF, the amyloid nucleation score entry is “inactive”. In turn, RVERICDNVSSC registered an amyloid nucleation score of -0.577 ± 1. For the substance KINDCYGYYDLYWNWSIVRF, the amyloid nucleation score result is “inactive”. Next, PRNHIRSLSM: “inactive”; ELLWGPMGSNWKSLVVYFSH: “inactive”; YIFFEWGINPHRGDYVFSFR: “inactive”. The same measure for RLTRVVIMQRFIGEVRLSAL: “inactive”. Take EERIT: the amyloid nucleation score result is “inactive”. Regarding KSVRNTAHLWHCVLTIYVYL, the amyloid nucleation score result was “inactive”. Next, LVEIVLYWSRVWYWTRGSNV: “inactive”; YYLVDRWREFVGYRKKDCVA: “inactive”; LRFAYTFFWYVRFRVRICFN: “inactive”. On to EHLRMCNLATIKLILLNVHP, for which the amyloid nucleation score result was “inactive”.

Take CCWRNLYSFLRKGSYSRCM: the amyloid nucleation score result was “inactive”.

Regarding CLLSYSQPLGKGFGSTRDRC, the amyloid nucleation score entry is “inactive”. In the case of CRISSPAGVNLLDSSRLSRL, the amyloid nucleation score entry was “inactive”. Next, FGLITYFLL: 1 ± 0.13; GGNGVPRVWSVFIRRVWNSV: “inactive”; CAVALLNHRG: “inactive”. For the substance FWMILMDMLFMRLGSL, the amyloid nucleation score result was “inactive”. Next, ASTMDW: “inactive”; DLNIVIPRIRAHRA: “inactive”. As to LNFTCEVGGVYEVDVNSCLL, the amyloid nucleation score result is “inactive”. The same measure for CYSNSEPISAYDD: “inactive”. As for PSSSDGSMHLYIILQTLLFF, the amyloid nucleation score is 1.49 ± 0.11. Consider MYVSV, for which the amyloid nucleation score result is “inactive”. Next, CCQLGESTENGLFSDDWRCE: “inactive”. Substance FHVEVVAGCIVGNFGGVCVI showed an amyloid nucleation score of 0.5 ± 0.28. In the case of YESHLLRNRDSRTYSR, the amyloid nucleation score entry was “inactive”. The same measure for ECSRNAVCF: “inactive”; for MLNGVLNSKVPMNRRTSGNL: 0.537 ± 0.13; for SEIIHLGFYYDP: “inactive”.

On to QFSRPGIFNFHRWDSRYRAA, for which the amyloid nucleation score result is “inactive”.

With NLRFVTREWCKTYQLI, the amyloid nucleation score entry was “inactive”. Next, APFCVRGSWELRQVFRM: -0.13 ± 0.77; SAACPWNWLDGASPPLRATA: “inactive”; RSGWS: “inactive”. The same measure for MDEGIVKTELFYRWRISRLG: “inactive”; for DGPHLPDHGGLM: “inactive”; for FAIFGSWPKFFSCTP: 0.378 ± 0.41. Next, VDTYHTFVVVLH: “inactive”; FFFYFLRFSDFNWFINWLIS: “inactive”; WTWTSLSSLMWSV: “inactive”. For the substance ASILEFPRSTKSTSLGRSGR, the amyloid nucleation score entry is “inactive”. Next, QVCYG: “inactive”. With FFMEIKYGWKV, the amyloid nucleation score amounted to 0.898 ± 0.12.

Regarding YKYGPARCRKRGDSCAKGGG, the amyloid nucleation score result was “inactive”. Next, VFNIRHSSDPRLYLTYVMSS: 1.19 ± 0.12. Next, EKANLLIWDFKKDMLRTVGG: “inactive”; YDNANGRTRIIMISGRVSNY: “inactive”.

Turning to MKKWDNNSLVLPLKGSGKED, the amyloid nucleation score result was “inactive”. Next, IVVNT: “inactive”; MGRAWTIQAGNVMCRVVGKH: -0.283 ± 0.58; VQPVGSSKGVRGVE: 0.983 ± 0.2. Next, WKNNRLNIIYQPLLGTQICK: “inactive”; CMMSWIDSNFRGSEMLTH: “inactive”; SLYRSEVMVHAVVVYVYFGK: “inactive”. Next, ADVNTL: “inactive”. On to GYWGTLSERPYTELIAGTSI, for which the amyloid nucleation score entry was “inactive”. Turning to SLNLWGLRSKVPDVWRMLMR, the amyloid nucleation score result was “inactive”. The same measure for LLPDRFANPGETWVLNYKLM: “inactive”; for YASVEIFHWTFSGILYSWGH: “inactive”; for SSKLFL: “inactive”. Next, NLADAVEENGGYFHFTFPKF: “inactive”; IVAGVMADNDIRQDCAWKFK: 1.34 ± 0.12; YDVPTSTDSLFATFVYYGRR: 1.44 ± 0.12. The same measure for YPLLEPSRVLVVCDGKGGVP: “inactive”. In the case of TCSFECGACTRQVDAVCQLG, the amyloid nucleation score entry was “inactive”. The same measure for GAHWNASSHICGRKD: “inactive”. With AALTPNPGVD, the amyloid nucleation score entry is “inactive”.

On to GMCWVDFVNNTASCVWFPLC, for which the amyloid nucleation score result was “inactive”.

On to LLWSCCRGRMYDNMFHGKVK, for which the amyloid nucleation score entry is “inactive”. Next, GLMLYTSMVGSYDDWPD: “inactive”; RSYRI: “inactive”; YISLISCMGKVNY: 2.31 ± 0.089.

With TWTDCERRLDIVKEMLNYIQ, the amyloid nucleation score result was “inactive”. The same measure for IPRVAWQSYILTSQ: “inactive”. Next, NWKLPGFPNLVQRITTDSPL: “inactive”; KGSVMTCDSYTCFMLNSEVL: 1.47 ± 0.13; SSVEHWPQNVFNRYFLYGVY: “inactive”.

With LALCSTCFNLVYIICVGKKW, the amyloid nucleation score entry was “inactive”. The same measure for GFAYESQAA: “inactive”; for SFNFCLFASLSALCMTRVEF: “inactive”; for LDTSNMPTYGLKSEVSVIAR: “inactive”.

In the case of CKYSMRLDCLARNNDLKVLL, the amyloid nucleation score entry is “inactive”. The same measure for SYLQQLDLSRDGTVLLKSGI: “inactive”. The same measure for ANGLLSFSGRADGLQTNSGC: “inactive”; for AVTDTNLLLFDVGYESLVHS: “inactive”; for LCVRFARMSGSAHLVESYVD: “inactive”. Next, VKLRPLCAVKIRRYLYVVRE: -0.054 ± 0.3; HVAIPTGLSKSNSQLYS: “inactive”; YRWSPWYNYCSSWTWCQMST: 1.51 ± 0.13. Consider MVVRDDKIWIAFRCLYDCCV, for which the amyloid nucleation score entry is “inactive”. The same measure for LGESMRRVKVSVQIRIHMGQ: 1.11 ± 0.16; for HFQIIC: “inactive”.

As for AWNLS, the amyloid nucleation score entry is “inactive”. Next, RLEGRLLCKWVCP: 1.96 ± 0.069; MCGDKSV: “inactive”. The same measure for CICLVDPERLKDKTI: “inactive”; for WDFDVSVIGLMYKFRSVELG: “inactive”; for CLSFYCTVSKKVRRKAVTPF: 0.807 ± 0.2. In the case of MCSRCLFHCGLVVCRVVVPA, the amyloid nucleation score entry is “inactive”. For the substance ISLGCLYLFCYVTGCICSVG, the amyloid nucleation score worked out at 1.49 ± 0.094. The same measure for PIMVRRHEGSH: “inactive”; for FYDAWRIFLSYFRLSLLTNV: “inactive”. The same measure for TKSYFRINMFAVLDRCGLCR: “inactive”; for TCRHPIPASLARSAAAVLVW: “inactive”. The same measure for INGSNNATCWVSLSIMKARI: “inactive”; for DFSGVSLDVITRRCLGFIGA: “inactive”; for SVLSLLLCYRCSRL: -0.081 ± 0.98. WRVSFTLS: the amyloid nucleation score result was “inactive”. The same measure for KCFISYR: “inactive”; for HDRDHDMINSFIAFRQYWPW: 0.339 ± 0.34.
